Target: the molecule itself
Assay: cross-linking

B1: His-GLUD1^K84R (enzyme)
chain: not shown
  stoichiometry N: 6

— paper PMC11321297 (Cell Insight, 2024)
